# Assay: yeast display, Sf9 membrane polyspecificity reagent, FACS + sequencing; frameworks hold sequencing errors
# Method in brief: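 Polyreactivity labels are assigned by the sorting gate from which each nanobody was recovered. The gates were low and high (top ~1%), set on anti-HA fluorescence for expression and streptavidin fluorescence for reagent binding. Before sorting, galactose-induced (36–48 hours) yeast display cells were stained for 1 hour at 4 °C with 10% biotinylated, detergent-solubilized Sf9 membrane reagent.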
row,Sequence,polyreactivity (PSR sort gate)
1,QVQLVESGGGLGQAGGSLRLSCAASGLIIQPNAMGWYSPAPGKERELVAAISSSDGSTYYADSVKGRFTISRDNAKNTVYLQMNSLKREDSAVYYCAAGYYFQVEPDLVYIYSYEYWGQGTHVTVSS,low polyreactivity
2,QVQLVESGGGLVQAGGSLRLSCAASGRIFEHNAMGWYRQAPGKEREFVAAISSSGGSTYYADSVKGRFTISRDNAKNTVYLQMNSLKPEDTAVYYCNAGSTYYERNYWGQGTQVTVSS,low polyreactivity
3,QVQLVESGGGLVQAGGSLRLSCAASGSTFAANAMGWYRQAPGKERELVAALTRSGGSTYYADSVKGRFTISRDNAKNTVYLQMNSLKPEDTAVYYCASKYHTRGVQHGYWGQGTQVTVSS,low polyreactivity
4,QVQLVESGGGLVQAGGRLRLSCAASGYIFGWNAMGWYRQAPGKERELVAAISSGGNTKYADSVKGRFTISRDNAKNTVYLQMNSLKPEDTAVYYCNADFRVYIPHVPYFVDFDYWGQGTQVTVSS,low polyreactivity
5,HVQLVESGGGLVQAGGSLRVSCAASGSTFTRNAMGWYRQAPGKERELVAAITLRGGRTYYADSVKGRFTISRDNAKNTVYLQMNSLKPEDTAVYYCAAKPYTAYSYYEQRGRKYDYWGQGTQVTVSS,low polyreactivity
6,QVQLVESGGGLVQAGGSLRLSCAASGSIFLANAMGWYRQAPGKERELVAGISSSVTTNYADSVKGRFTISRDNAKNTVYLQMNSLKPEDTAVYYSNAVYGVYDFNYWVQGTQVTVSS,low polyreactivity
7,QVQLVESGGGLVQAGGSLRLSCAASGRTFRGNAMGWYRQAPGKERELVAAISRGGSTKYADSVKGRFTISGDNAKNTVYLQMNSLKPEDTAVYYCAADNRKSRYDYWGQGTQVTVSS,high polyreactivity
8,QVQLVESGGGLVQAGGSLRLSCAASGSTFDTNAMGWYRQAPGKELVAAISSAGSTYYADSVKGRFTISRDNAKNTVYLQMNSLKPVATAVYYCAAGNAESPYESLEDDYWGQGTQVTVSS,low polyreactivity
9,QVQLVESGGGLVQAGGSLRLSCAASGIIFPYYAMGWYRQAPGKERELVAGISWSGGSTYYADSVKGRFTISRDNAKNTVYLQMNSLKPEDTAVYYCAADYPATPDDDYWGQGTQVTVSS,high polyreactivity
10,QVQLVESGGRIVQAGGSLRLSCDASGSTIFGNGMGWYRQAPGKERELVAAISGGGSTHYADSVKGRFTISRDNAKNTVYLQMNSVKPEDTAVYYCSPSRDTDGRGPIQRDFWGQGTQVTVSS,low polyreactivity
11,QVQLVESGGGLVQAGGSLRLSCAASGRIFVVYAMGWYRQAPGKERELVAAITYGGGSTHYADSVKGRFTISRDNAKNTVYLQMNSLKPEDTAVYYCAADLFYHSYGYEYWGQGTQVTVSS,low polyreactivity
12,QVQLVESGGGLVQAGGSLRLSCAASGRTFGPNGMGWYRQAPGKERELVAAITRRGGSTYYADSVKGRFTISRDNEKNTVYLQMNSLKPEDTAVYYCAAYSSWGGFDYWGQGTQVTVSS,low polyreactivity
13,QYQLVESGGGLVQAGGSLRLSCAASGRIFLVYVMGWYRQAPGKERELVADITFSGGSTYYADSVKGRFTISRDNEKNNVYLQMNSLKPEYTAVYYCAAATWSFLDYWGQGTQVTVSS,high polyreactivity
14,QVQLVESGGGLVQAGGSLRLSCAASGFIIDANTMGWYRQAPGKERELVAAINESGGSTYYADSVKGRFTISRDNAKNTVYLQMNSLKPEDTAVYYCAADPTWDYGWSGYPYYYYWGQGTQVTVSS,high polyreactivity
15,QVQLVESVGGLVQAGGSLRLICAASGFTFRRNAIGWYRQAPGKERELVAAITRSGGITYYADSVKGRFTISRDNAKNTVYLQMNSLKPEDTAVYYCNKQVTGAERFQGHGAYYWGQGTQVTVSS,high polyreactivity
16,QVQLVESGGGLVQAGGSLRLSCAASGISFYSYTMGWYIQAPGKERELVAAIRGSDGSTYYADSVKGRFTLSRDNAKNTVYLQMNSLKPEVTAVYYCNRKFYWRRDYWGQGTQVTVSS,high polyreactivity
17,QVQLVESGGGLVQAGGSLRLSCAASGSTYAYDMGSYRQAPGKERELVAAISWDGGDTYYADSVKGRFTISRDNAKNTVYLQMNSLKPEDTAVYYCNTVFQRSGYAAGVDYWGQGTQVTVSS,high polyreactivity
18,QVQLVESGGGLVQAGGSLRLSCAASGSIFKVYAMGWYRQAPGKEREFVAAITSSDSNTNYADSVKGRFTISRDNAKNTVYLQMNSLKPEDTAVYYCNARIYTRRYVPHYGFNYWGQGTQVTVSS,low polyreactivity
19,QVQLVESGGGLVQAGGSLRLSCAACGFTFLRYVMGWYRQAPGKERELVAAISYSGGRTYYADSVKGRFTISRDNAKNTVYLQMNSLKPEDTAVYYCAAARPVGYPPVLKYAYWGQGTQVTVSS,high polyreactivity
20,QVQLVESGGGLVQAGGSLRLSCAASGRIFKRYAMGWYRQAPGKERELVASITWSGGSTYYADSVKGRFTISRDNAKNTVYLQMNSLKPEDTAVYYCAARRTATTSRAYYYWGQGTQVTVSS,high polyreactivity
21,QVQLVESGGGLVQAGGSLRLSCAASGSIFLIYAMGWYRQAPGKERELVAAISSGGSTYYADSVKGRFTISRDNAKNTVYLQMNSLKPEDTAVYYCAARYVERHTDYYYWGQGTQVTVSS,low polyreactivity

row,Sequence,polyreactivity (PSR sort gate)
1,QVQLVESGGGLVQAGGSLRLSCAASGSIFHPYTMGWYRQAPGKERELVAAISWSGGNTNYADSVNGRFTISRDNAKNTVYLQMNSLKPDDTAVYYCNKATNLSGGYDSWGQGTQVTVSS,low polyreactivity
2,QVQLVESGGGLVQAGGSLRLSCAASGSTFDGYAMGWSRQAPGKERELVAAITFDGSSTYYADSVKGRFTISRDNAKNTVYLQMNSLKPEDTAVYYCAAASSYWVLWDDYWGQGTQVTVSS,low polyreactivity
3,QVQLVESGGGLVQAGGSLRLSCAASGSTFYPYAMGWYRQAPGKERELVASISSRGGTTYYADSVKGRFTISRDNAKNTVYLQMNSLKPEDTAVYYCAARLTYAERKWPTKYYWGQGTQVTVSS,high polyreactivity
4,QVQLVESGGGLVQAGGSLRLSCAASGRTFFYNAMAWYRQAPGKERESTYYADSVKGRFTISRDNAKNTVYLQMNSLIPEDTAVSYCAAGTAYVAYEGDKGDYCGQGTQVTVSS,low polyreactivity
5,QVQLVESGGGLVQAGGSLRLSCAASGSTFYTYAMGWYRQAPGKERELVATISRGGGRTYYADSVKGRFTISRDNAKNTVYLQMNSLKPEDTAVYYCAARLYSSSYNSEQYYYWGQGTQVTVSS,high polyreactivity
6,QVQLVESGGGIVQAGGSLRLSCAASGIIIDGNAMGWYRQAPGKERELVAAISSRGGSTYYADSVKGRFTISRDYAKNTVYLQMNSLKPEDTAVYYCAAKVRHYYSASNYYYWGQGTQVTVSS,high polyreactivity
7,QVQLVESGGGLVQAGGSLRLSCAASGSIFGYYSMGWYRQAPGKERELVAAISRSGTRTYYADSVKGRFTISRDNAKNTVYVQMNSLKPEDTAVYYCNAVQQYYGTWGYGYWGQGTQVSVSS,high polyreactivity
8,QVQLVESGGGFVQAGGSLRLSCAASGRIFRIYAMGWYRQAPGKERELVAAITYRGGSTNYADSVKGRFTISRDNAKNTVYVQINSLKPEDTAVYDCAARSVYYGYTGYSYWGPGTQVTVSS,high polyreactivity
9,QVQLVESGGGLVQAGGSLRLSCAASGFIFWYYAMGWYRQAPGKERELVAAITSRGGSTYYADSVKGRFTISSDNAKNTDYLQMNSLKPEDTAVYYCAAKFPSRFYSFVQYYYWGQGTQVTVSS,high polyreactivity
10,QVQLVESGGGLVQAGGSLRLSSAASGYTFTINTMGWYRQAPGKERELVAAITWRGGSTYYADSVKGRFSISRDNAKNTVYLQMNSLKPEDTAVYYCNKDYYITTTTFDYWGQGTQVTVSS,low polyreactivity
11,QVQLVESGGGLVQAGRSLRLSCAASGFTFQSYDMGWYRQAPGKDRELVAAISWSGASTYYADSVKGRFTISRDNAKNTVYLQMNSLKPEDTAVYYCAAGEPTWWGYANDYWGQGTQVTVST,high polyreactivity
12,QVQLVESGGGLVQAGGSLRLSCAASGRTFKPYAMGWYRQAPGIERELVARISGSGGSTYYADSVKGRFTISRDNGKNTVYLQLNSLKPEDTAVYYCATTPYYWFDYWGQGTQVTVSS,low polyreactivity
13,QVQLEESGGGLVQAGGSLRLSCAASGRTFDIYAMGWYRQATGKERELVAAISSGGSTYYADSVKGRFTISRDNAKNTVFLQMNSLKPEDTAVYYCAVRWYDQVSRRGIGYYWGQGTQVTVSS,low polyreactivity
14,QVQLVESGGGLVQAGGSLRLSCASSGLTFYKNAMGWYRQAPGKERELVAVISSSGGSTYYADSVKGRFTISRDNAKNTVYLQMNSLKPEDTAVYYGGRDLYTEYRWGRLTYDYWGHGTQVTVSS,low polyreactivity
15,QVQLVESGGGLVQAGGSLRLSCAASGRIFRYYTMGWYRPAPGKERELVAAISWTGASTYYADSVKGRFTISRDNAKNTVYLQMNSLKPEDTAVYYCAADSYIAHHGFAMDYWGQGTQVTVSS,low polyreactivity
16,QVQLVESGGGLVQAGGSLRLSCAASGITFYFYAMGWYRQAPGKERELVAAISGSSGSTYYADSVKGRFTISRDNAKNTVYLQMNSLKPEDTAVYYCAAYNRWSGGFEYWGQGTQVTVSS,high polyreactivity
17,QVQLVESGGGLVQAGGSLRLSCAASGSTFRRNAMGWYRQAPGKERELVAAITSTDSTYYADSVKGRFTISRDNAKNTVYLQMNSLKPEDTAVYYCAKGYWWGGEMGYWGQGSQVTVSS,low polyreactivity
18,QVQLVESGGGLVQAGGSLRLSCAASGSTLNIYAMGWYRQAPGKERELVAAISWTDDTTYYADSVKGRFTISRDNAKNTVYLQMNSLKPEDTAVYYCAAEIYSWSDAQQYDYWGQGTQVTVSS,high polyreactivity
19,QVQLVESGGGLVQAGGSLRLSCAASGSIFADNAMGWDRQAPGKERELVAVISFSGSSTYYADSVKGRFTISRDNAKNTVYFQMNSVKPEDTAVYYWNAVRYRLERFDYWGQGTQVTVSS,high polyreactivity
20,QVQLVESGGGLVQAGGSLRLSCAASGFIFYLYARGWYRQAPGKERELVAAITRRGGSTYYADSVKGRFTISRDIAKNTFYLQMNSLKPEDTAVYYCAADHYGFFSAGDFDYWGQGTQVTVSS,high polyreactivity

# Reference: the nanobody polyreactivity screen of Harvey et al. (2022)
